According to patent publication US20200297818A1 (ZEALAND PHARMA A S, published 2020):
Numbering of substitutions follows the chain as printed. *1 amine or outer side, *2 acyl side, *3 side chain or, on linkers, in order; H or OH if unused. Side-chain parts run from the residue outwards. [ ]: non-standard residue; d: D form. The star is where a group is joined. C20 diacid = O=C(O)CCCCCCCCCCCCCCCCCCC(=O)*; γGlu = O=C(O)[C@H](CCC(=O)[*:2])N[*:1]; AEEA = NCCOCCOCC(=O)O; Aib = CC(C)(N)C(=O)O

T1: human GLP-2 receptor (hGLP2-R) (human, UniProt O95838 1-553)
T1 sequence (looked up): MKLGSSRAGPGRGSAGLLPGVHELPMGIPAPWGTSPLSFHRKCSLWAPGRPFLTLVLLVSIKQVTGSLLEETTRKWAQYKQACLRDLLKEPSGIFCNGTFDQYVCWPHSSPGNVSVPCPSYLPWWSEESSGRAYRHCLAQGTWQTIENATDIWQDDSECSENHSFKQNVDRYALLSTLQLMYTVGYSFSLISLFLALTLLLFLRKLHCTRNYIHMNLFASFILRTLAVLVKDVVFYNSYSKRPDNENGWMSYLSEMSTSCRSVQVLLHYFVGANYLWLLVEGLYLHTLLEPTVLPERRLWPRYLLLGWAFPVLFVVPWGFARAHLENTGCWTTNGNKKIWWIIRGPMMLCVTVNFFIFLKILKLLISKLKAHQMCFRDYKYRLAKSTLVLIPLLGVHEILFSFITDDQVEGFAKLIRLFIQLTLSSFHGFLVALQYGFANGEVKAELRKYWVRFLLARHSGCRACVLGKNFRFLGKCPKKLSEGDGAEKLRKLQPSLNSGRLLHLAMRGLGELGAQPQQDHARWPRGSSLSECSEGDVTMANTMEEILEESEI

B1: Compound 30 (peptide)
peptide: HXEGSFTSELATILDXQAARDFIAWLIRHKITD
HELM: PEPTIDE1{H.[Aib].E.G.S.F.T.S.E.L.A.T.I.L.D.K.Q.A.A.R.D.F.I.A.W.L.I.R.H.K.I.T.D}|PEPTIDE2{[O=C(O)CCCCCCCCCCCCCCCCC(=O)[*:2]].[gGlu]}$PEPTIDE1,PEPTIDE2,16:R3-2:R2$$$V2.0
SMILES: CC[C@H](C)[C@H](NC(=O)[C@H](Cc1ccccc1)NC(=O)[C@H](CC(=O)O)NC(=O)[C@H](CCCNC(=N)N)NC(=O)[C@H](C)NC(=O)[C@H](C)NC(=O)[C@H](CCC(N)=O)NC(=O)[C@H](CCCCNC(=O)CC[C@H](NC(=O)CCCCCCCCCCCCCCCCC(=O)O)C(=O)O)NC(=O)[C@H](CC(=O)O)NC(=O)[C@H](CC(C)C)NC(=O)[C@@H](NC(=O)[C@@H](NC(=O)[C@H](C)NC(=O)[C@H](CC(C)C)NC(=O)[C@H](CCC(=O)O)NC(=O)[C@H](CO)NC(=O)[C@@H](NC(=O)[C@H](Cc1ccccc1)NC(=O)[C@H](CO)NC(=O)CNC(=O)[C@H](CCC(=O)O)NC(=O)C(C)(C)NC(=O)[C@@H](N)Cc1c[nH]cn1)[C@@H](C)O)[C@@H](C)O)[C@@H](C)CC)C(=O)N[C@@H](C)C(=O)N[C@@H](Cc1c[nH]c2ccccc12)C(=O)N[C@@H](CC(C)C)C(=O)N[C@H](C(=O)N[C@@H](CCCNC(=N)N)C(=O)N[C@@H](Cc1c[nH]cn1)C(=O)N[C@@H](CCCCN)C(=O)N[C@H](C(=O)N[C@H](C(=O)N[C@@H](CC(=O)O)C(=O)O)[C@@H](C)O)[C@@H](C)CC)[C@@H](C)CC
B2: Compound 31 (peptide)
peptide: B1 peptide with R28S
HELM: PEPTIDE1{H.[Aib].E.G.S.F.T.S.E.L.A.T.I.L.D.K.Q.A.A.R.D.F.I.A.W.L.I.S.H.K.I.T.D}|PEPTIDE2{[O=C(O)CCCCCCCCCCCCCCCCC(=O)[*:2]].[gGlu]}$PEPTIDE1,PEPTIDE2,16:R3-2:R2$$$V2.0
SMILES: CC[C@H](C)[C@H](NC(=O)[C@H](Cc1ccccc1)NC(=O)[C@H](CC(=O)O)NC(=O)[C@H](CCCNC(=N)N)NC(=O)[C@H](C)NC(=O)[C@H](C)NC(=O)[C@H](CCC(N)=O)NC(=O)[C@H](CCCCNC(=O)CC[C@H](NC(=O)CCCCCCCCCCCCCCCCC(=O)O)C(=O)O)NC(=O)[C@H](CC(=O)O)NC(=O)[C@H](CC(C)C)NC(=O)[C@@H](NC(=O)[C@@H](NC(=O)[C@H](C)NC(=O)[C@H](CC(C)C)NC(=O)[C@H](CCC(=O)O)NC(=O)[C@H](CO)NC(=O)[C@@H](NC(=O)[C@H](Cc1ccccc1)NC(=O)[C@H](CO)NC(=O)CNC(=O)[C@H](CCC(=O)O)NC(=O)C(C)(C)NC(=O)[C@@H](N)Cc1c[nH]cn1)[C@@H](C)O)[C@@H](C)O)[C@@H](C)CC)C(=O)N[C@@H](C)C(=O)N[C@@H](Cc1c[nH]c2ccccc12)C(=O)N[C@@H](CC(C)C)C(=O)N[C@H](C(=O)N[C@@H](CO)C(=O)N[C@@H](Cc1c[nH]cn1)C(=O)N[C@@H](CCCCN)C(=O)N[C@H](C(=O)N[C@H](C(=O)N[C@@H](CC(=O)O)C(=O)O)[C@@H](C)O)[C@@H](C)CC)[C@@H](C)CC
B3: reference compound B (peptide)
peptide: B1 peptide with T7S, R28Q
HELM: PEPTIDE1{H.[Aib].E.G.S.F.S.S.E.L.A.T.I.L.D.K.Q.A.A.R.D.F.I.A.W.L.I.Q.H.K.I.T.D}|PEPTIDE2{[O=C(O)CCCCCCCCCCCCCCCCC(=O)[*:2]].[gGlu]}$PEPTIDE1,PEPTIDE2,16:R3-2:R2$$$V2.0
SMILES: CC[C@H](C)[C@H](NC(=O)[C@H](Cc1ccccc1)NC(=O)[C@H](CC(=O)O)NC(=O)[C@H](CCCNC(=N)N)NC(=O)[C@H](C)NC(=O)[C@H](C)NC(=O)[C@H](CCC(N)=O)NC(=O)[C@H](CCCCNC(=O)CC[C@H](NC(=O)CCCCCCCCCCCCCCCCC(=O)O)C(=O)O)NC(=O)[C@H](CC(=O)O)NC(=O)[C@H](CC(C)C)NC(=O)[C@@H](NC(=O)[C@@H](NC(=O)[C@H](C)NC(=O)[C@H](CC(C)C)NC(=O)[C@H](CCC(=O)O)NC(=O)[C@H](CO)NC(=O)[C@H](CO)NC(=O)[C@H](Cc1ccccc1)NC(=O)[C@H](CO)NC(=O)CNC(=O)[C@H](CCC(=O)O)NC(=O)C(C)(C)NC(=O)[C@@H](N)Cc1c[nH]cn1)[C@@H](C)O)[C@@H](C)CC)C(=O)N[C@@H](C)C(=O)N[C@@H](Cc1c[nH]c2ccccc12)C(=O)N[C@@H](CC(C)C)C(=O)N[C@H](C(=O)N[C@@H](CCC(N)=O)C(=O)N[C@@H](Cc1c[nH]cn1)C(=O)N[C@@H](CCCCN)C(=O)N[C@H](C(=O)N[C@H](C(=O)N[C@@H](CC(=O)O)C(=O)O)[C@@H](C)O)[C@@H](C)CC)[C@@H](C)CC
B4: Compound 32 (peptide)
peptide: B1 peptide with I27Q, R28Q
HELM: PEPTIDE1{H.[Aib].E.G.S.F.T.S.E.L.A.T.I.L.D.K.Q.A.A.R.D.F.I.A.W.L.Q.Q.H.K.I.T.D}|PEPTIDE2{[CCCCCCCCCCCCCCCC(=O)[*:2]].[bAla]}$PEPTIDE1,PEPTIDE2,16:R3-2:R2$$$V2.0
SMILES: CCCCCCCCCCCCCCCC(=O)NCCC(=O)NCCCC[C@H](NC(=O)[C@H](CC(=O)O)NC(=O)[C@H](CC(C)C)NC(=O)[C@@H](NC(=O)[C@@H](NC(=O)[C@H](C)NC(=O)[C@H](CC(C)C)NC(=O)[C@H](CCC(=O)O)NC(=O)[C@H](CO)NC(=O)[C@@H](NC(=O)[C@H](Cc1ccccc1)NC(=O)[C@H](CO)NC(=O)CNC(=O)[C@H](CCC(=O)O)NC(=O)C(C)(C)NC(=O)[C@@H](N)Cc1c[nH]cn1)[C@@H](C)O)[C@@H](C)O)[C@@H](C)CC)C(=O)N[C@@H](CCC(N)=O)C(=O)N[C@@H](C)C(=O)N[C@@H](C)C(=O)N[C@@H](CCCNC(=N)N)C(=O)N[C@@H](CC(=O)O)C(=O)N[C@@H](Cc1ccccc1)C(=O)N[C@H](C(=O)N[C@@H](C)C(=O)N[C@@H](Cc1c[nH]c2ccccc12)C(=O)N[C@@H](CC(C)C)C(=O)N[C@@H](CCC(N)=O)C(=O)N[C@@H](CCC(N)=O)C(=O)N[C@@H](Cc1c[nH]cn1)C(=O)N[C@@H](CCCCN)C(=O)N[C@H](C(=O)N[C@H](C(=O)N[C@@H](CC(=O)O)C(=O)O)[C@@H](C)O)[C@@H](C)CC)[C@@H](C)CC
B5: Compound 33 (peptide)
peptide: B1 peptide with I27Y, R28Q
HELM: PEPTIDE1{H.[Aib].E.G.S.F.T.S.E.L.A.T.I.L.D.K.Q.A.A.R.D.F.I.A.W.L.Y.Q.H.K.I.T.D}|PEPTIDE2{[O=C(O)CCCCCCCCCCCCCCCCC(=O)[*:2]].[gGlu].[O=C(COCCOCCN[*:1])[*:2]]}$PEPTIDE1,PEPTIDE2,16:R3-3:R2$$$V2.0
SMILES: CC[C@H](C)[C@H](NC(=O)[C@H](Cc1ccccc1)NC(=O)[C@H](CC(=O)O)NC(=O)[C@H](CCCNC(=N)N)NC(=O)[C@H](C)NC(=O)[C@H](C)NC(=O)[C@H](CCC(N)=O)NC(=O)[C@H](CCCCNC(=O)COCCOCCNC(=O)CC[C@H](NC(=O)CCCCCCCCCCCCCCCCC(=O)O)C(=O)O)NC(=O)[C@H](CC(=O)O)NC(=O)[C@H](CC(C)C)NC(=O)[C@@H](NC(=O)[C@@H](NC(=O)[C@H](C)NC(=O)[C@H](CC(C)C)NC(=O)[C@H](CCC(=O)O)NC(=O)[C@H](CO)NC(=O)[C@@H](NC(=O)[C@H](Cc1ccccc1)NC(=O)[C@H](CO)NC(=O)CNC(=O)[C@H](CCC(=O)O)NC(=O)C(C)(C)NC(=O)[C@@H](N)Cc1c[nH]cn1)[C@@H](C)O)[C@@H](C)O)[C@@H](C)CC)C(=O)N[C@@H](C)C(=O)N[C@@H](Cc1c[nH]c2ccccc12)C(=O)N[C@@H](CC(C)C)C(=O)N[C@@H](Cc1ccc(O)cc1)C(=O)N[C@@H](CCC(N)=O)C(=O)N[C@@H](Cc1c[nH]cn1)C(=O)N[C@@H](CCCCN)C(=O)N[C@H](C(=O)N[C@H](C(=O)N[C@@H](CC(=O)O)C(=O)O)[C@@H](C)O)[C@@H](C)CC
B6: Compound 34 (peptide)
peptide: H-H[Aib]EGSFTSELATILDK([AEEA-AEEA-γGlu-C20 diacid])QAARDFIAWLKQHKITD-OH
SMILES: CC[C@H](C)[C@H](NC(=O)[C@H](Cc1ccccc1)NC(=O)[C@H](CC(=O)O)NC(=O)[C@H](CCCNC(=N)N)NC(=O)[C@H](C)NC(=O)[C@H](C)NC(=O)[C@H](CCC(N)=O)NC(=O)[C@H](CCCCNC(=O)COCCOCCNC(=O)COCCOCCNC(=O)CC[C@H](NC(=O)CCCCCCCCCCCCCCCCCCC(=O)O)C(=O)O)NC(=O)[C@H](CC(=O)O)NC(=O)[C@H](CC(C)C)NC(=O)[C@@H](NC(=O)[C@@H](NC(=O)[C@H](C)NC(=O)[C@H](CC(C)C)NC(=O)[C@H](CCC(=O)O)NC(=O)[C@H](CO)NC(=O)[C@@H](NC(=O)[C@H](Cc1ccccc1)NC(=O)[C@H](CO)NC(=O)CNC(=O)[C@H](CCC(=O)O)NC(=O)C(C)(C)NC(=O)[C@@H](N)Cc1c[nH]cn1)[C@@H](C)O)[C@@H](C)O)[C@@H](C)CC)C(=O)N[C@@H](C)C(=O)N[C@@H](Cc1c[nH]c2ccccc12)C(=O)N[C@@H](CC(C)C)C(=O)N[C@@H](CCCCN)C(=O)N[C@@H](CCC(N)=O)C(=O)N[C@@H](Cc1c[nH]cn1)C(=O)N[C@@H](CCCCN)C(=O)N[C@H](C(=O)N[C@H](C(=O)N[C@@H](CC(=O)O)C(=O)O)[C@@H](C)O)[C@@H](C)CC

The binders below were run against human glucagon-like peptide 1 receptor (GLP-1 R) (human, UniProt P43220 24-463) (assay: cell-based or functional assay).

In order of falling “EC50 GLP-1 (nM); cAMP response” value:
1. B3  3.9 nM
2. B5  0.85 nM
3. B4  0.38 nM
4. B1  0.31 nM
5. B6  0.28 nM
6. B2  0.27 nM

These binders were tested against T1, human GLP-2 receptor (hGLP2-R) (assay: cell-based or functional assay).

In order of rising “EC50 GLP-2 (nM); cAMP response” value:
1. B5  0.072 nM
2. B6  0.13 nM
3. B2  0.24 nM
4. B3  0.28 nM
5. B1  0.38 nM
6. B4  0.46 nM
